Measurements published in article PMC9147068, “The Response Regulator RegA Is a Copper Binding Protein That Covalently Dimerizes When Exposed to Oxygen” (Microorganisms, 2022).

B1: RegA (response regulator RegA of Rhodobacter capsulatus), wild type, tagless (natural protein, UniProt P42508 1-184, looked up)
chain: MAEEEFAELGSDRSLLLVDDDNAFLTRLARAMEKRGFQTEIAETVSAGKAIVQNRAPAYAVIDLRLEDGNGLEVVEALRERRPEARIVVLTGYGAIATAVAAVKMGATDYLSKPADANDITNALLAKGEALPPPPENPMSADRVRWEHIQRVYELCDRNVSETARRLNMHRRTLQRILAKRSPR
notes: RegA, response regulator of the RegB/RegA two-component system, Rhodobacter capsulatus; wild-type codon at residue 95 (made from the RegA* overexpression vector of Du et al. 1998); a single cysteine, Cys156, in the tryptic peptide VYELCDR; The dimer formed with Cu2+ and O2 is joined by an intermolecular disulfide bond between Cys156 of two chains; also called apo-RegA; RegA monomer

Tests used:
[1] = test system: RegA, Cu2+-stimulated disulfide-linked dimer (unphosphorylated) (Rhodobacter capsulatus); assay: DNase I footprinting; details: 20 mM Tris-HCl pH 8.0, 2 mM MgCl2, 0.5 mM CaCl2, 0.1 mg/mL BSA, 50 nM DNA probe, 20 uL, 15 min at room temperature
[2] = biological target: the molecule itself; assay: non-reducing SDS-PAGE; monomeric RegA loaded with Cu2+ by buffer exchange aerobically (20 mM Tris-HCl pH 8.0, 250 mM NaCl), run at once on a non-reducing gel without DTT; time course in air from one minute

Molecule	Kd [1]	stoichiometry N [2]
ccoN promoter fragment (299 bp)	1000 nM	
B1		2
